These results are taken from patent publication CN114685656A (鲁南制药集团股份有限公司, dated 2022).

Positions count from the first letter of the chain named.

What is called EC50 is the midpoint of the concentration-response curve. One may read the IC50 as the concentration that gives 50% inhibition. What is called Kd is a measure of binding affinity in units of concentration.

Experiment [1] addresses 人SIRPα受体 on CHO cells (CHO-huSIRPα) (human) (UniProt P78324). Nature of the experiment: flow cytometry on CHO-huSIRPα cells, PE anti-mouse IgG Fc.
Experiment [2] addresses 猴SIRPα受体 on CHO cells (CHO-cyno-SIRPα) (monkey (cyno)). Nature of the experiment: flow cytometry on CHO-cyno-SIRPα cells, PE anti-mouse IgG Fc. (In general: A flow cytometer gives signals particle by particle.)
Another experiment addresses 重组hu-SIRPα-his (human, UniProt P78324 31-370, limits assumed). Nature of the experiment: ELISA on coated hu-SIRPα-his (0.5 μg/ml), anti-mouse IgG-HRP. (In an ELISA, binding on a coated surface is turned into a signal by an enzyme label.)
Experiment [3] addresses T1, 重组hSIRPα (human, UniProt P78324 31-370, limits assumed).
T1 construct: also called SIRPα蛋白; SIRPα抗原
Nature of the experiment: competition ELISA on coated hSIRPα (1 μg/ml) against biotinylated CD47-Fc (6 μg/ml).

The target in experiment [4] is 猴SIRPα受体 on CHO cells (CHO-cyno-SIRPα) (monkey (cyno)). Nature of the experiment: flow cytometry, hybridoma supernatant on CHO-cyno-SIRPα cells, PE anti-mouse IgG Fc.
Experiment [5] addresses 人SIRPα受体 on CHO cells (CHO-huSIRPα) (human) (UniProt P78324). Nature of the experiment: flow cytometry, hybridoma supernatant on CHO-huSIRPα cells, PE anti-mouse IgG Fc.
Experiment [6] concerns the target T2, 重组hSIRPg-his (human, UniProt Q9P1W8 29-360, limits assumed).
T2 construct: also called sirp-γ
Nature of the experiment: competition ELISA on coated hSIRPg-his (1 μg/ml) against biotinylated CD47-Fc (6 μg/ml).

Experiment [7] concerns the target T1, 重组hSIRPα. Nature of the experiment: SPR (Biacore T200), antibody captured on Protein A chip, SIRPα protein as analyte, 1:1 Langmuir fit. For orientation: In SPR one partner is held on a chip, and binding of the other changes the refractive index at the surface.
The target in experiment [8] is T2, 重组hSIRPg-his. Nature of the experiment: ELISA on coated hSIRPg-his (1 μg/ml), anti-mouse IgG-HRP.

For the molecule mIgG (antibody), the MFI turned out to be 86.6 MFI in experiment [1] and 76.4 MFI in experiment [2].
SE5A5 (antibody) gave an EC50 in the experiment with 重组hu-SIRPα-his of 0.0225 µg/mL. Besides, the IC50 with 重组hSIRPα [3] stood at 0.121 µg/mL.

B1: 36D6 (antibody, V domains shown)
VH: EVQLQESGPELKKPGETVKISCKASGYTFTKYGMNWVKQAPGKGLKWLAWINTDTGEAKYSDDFKGRFAFSLETSASIVYLQINNLKNEDTATYFCARGESYSNYVRFVYWGQGTTVTVSS
VL: DIVMTQSHKFMSTSVGDRVSITCKASQDVNTAVAWYQQKAGHSPKLLIYWTSTRHTGVPDRFTGSGSGTDYTLTISSVQAEDLTLYYCQQHYSTPWTFGGGTKLEIK
notes: also called 抗SIRPα抗体36D6
Turning to B1, in the experiment with 重组hu-SIRPα-his, a half-maximal effect (EC50) was put at 0.0192 µg/mL. Also, the MFI in experiment [4] worked out at 5000 MFI; in [5], 9270 MFI. In the experiment with 重组hSIRPα [3], this molecule returned an IC50 of 0.248 µg/mL.

B2: Kwar23 (antibody, V domains shown)
VH: EVQLQQSGAELVKPGASVKLSCTASGFNIKDYYIHWVQQRTEQGLEWIGRIDPEDGETKYAPKFQDKATITADTSSNTAYLHLSSLTSEDTAVYYCARWGAYWGQGTLVTVSS
VL: QIVLTQSPAIMSASPGEKVTLTCSASSSVSSSYLYWYQQKPGSSPKLWIYSTSNLASGVPARFSGSGSGTSYSLTISSMEAEDAASYFCHQWSSYPRTFGAGTKLELK
B2 registered an IC50 with 重组hSIRPg-his [6] of 0.0394 µg/mL.

B3: 36G4 (antibody, V domains shown)
VH: EVQLVESGGGLVQPGGSLKLSCAASGFTFSNYGMSWVRQTPDKRLELVATINSNGGDTSYPDSVRGRFTISRDNAKNTLYLQMSSLKSEDTAMYYCTRGGWSWFAYWGQGTLVTVSA
VL: DIVLTQSPTSLAVSLGQRATISCRASESADSYGNSYMNWYQQKPGQPPKLLIYLASNLESGVPARFSGSGSRTDFTLTIDPVEADDAATYYCQQINEDPYTFGGGTKLEIK
notes: also called 抗SIRPα抗体36G4
In the experiment with 重组hu-SIRPα-his, B3 returned an EC50 of 0.0235 µg/mL. Further, the values for the MFI in experiment [4] and in experiment [5] were 4560 MFI and 9520 MFI, respectively. The IC50 with 重组hSIRPα [3] came out at 0.15 µg/mL.

B4: 52B3 (antibody, V domains shown)
VH: EVQLQQSGAELVRSGASVKMSCKASDYTFTSYNLHWVKQTPGQGLEWIGYIYPGNGNTKYSQKFKGKATLTADTSSSTAYMQISSLTSEDSAVYFCTRNYDYYFYTMGYWGQGTTVTVSS
VL: DIVLTQSPKFMSTSVGDRVNITCKASQDVCTAVAWYQQKPGQSPKLLIYSASYRYTGVPDRFTGSGSRTDFTFTISSVQAEDLAVYYCQQHYSTPLTFGAGTKLELK
notes: also called 抗SIRPα抗体52B3
Molecule B4 came in with an EC50 with 重组hu-SIRPα-his of 0.00736 µg/mL. The MFI in experiment [4] came to 6980 MFI; in experiment [5], 13600 MFI. Further, the IC50 with 重组hSIRPg-his [6] came to 0.196 µg/mL; with 重组hSIRPα [3] it was 0.121 µg/mL.

B5: 57B10 (antibody, V domains shown)
VH: B4 VH with Q3K, Q6E, D26G, L34M, V37I, N57A, K59N, S61N, T97A, G108D
VL: B4 VL with P8T, N20S, C30S, Y86F, Y92F, T94A
notes: also called 抗SIRPα抗体57B10
In the case of B5, the EC50 in the experiment with 重组hu-SIRPα-his is 0.00546 µg/mL. Moreover, the MFI in experiment [4] was 9230 MFI; in [5], 18500 MFI. This molecule displayed a Kd with 重组hSIRPα [7] of roughly 0.01 nM. For the same molecule, the IC50 with 重组hSIRPα [3] came to 0.0633 µg/mL.

B6: 40F3 (antibody, V domains shown)
VH: QVQLQQPGAELGKPGASVKLSCKASGYTFSSYYIYWLKQRPGQGLEWIGGINPSNDDTHLTEKFKSKATLIADRSSSTAYIQLSSLTSEDSAVYYCTRSYYANSWFAYWGQGTLVTVSA
VL: DIVLTQSPLSLPVSLGDQASISCRSSQTIVHSNGNTYLAWYLQKPGQSPKLLIYKVSNRFSGVPDRFSGSGSGTEFTLKISRVEAEDLGVYYCFQGSHVPYTFGGGTKLEIK
notes: also called 抗SIRPα抗体40F3
In the experiment with 重组hu-SIRPα-his, B6 showed an EC50 of 0.00587 µg/mL. Further, the MFI in experiment [4] came to 7570 MFI; in experiment [5], 17200 MFI. The binding result with 重组hSIRPg-his [8] is “no binding”. The molecule further gave a Kd with 重组hSIRPα [7] of roughly 0.01 nM. This molecule also returned an IC50 with 重组hSIRPα [3] of 0.0653 µg/mL.
